Reference: publication doi:10.1101/2022.04.10.487811 (bioRxiv, 2022)

Biological target: SARS-CoV-2 Beta-variant Spike with six stabilizing proline substitutions (S-6P) (SARS-CoV-2 Beta variant, strain)
Experiment: BLI

B1: C143 variant VL T33N-G53V, IgG (antibody, V domains shown)
VH: EVQLVESGGGLVQPGGSLRLSCAASGFSVSTKYMTWVRQAPGKGLEWVSVLYSGGSDYYADSVKGRFTISRDNSKNALYLQMNSLRVEDTGVYYCARDSSEVRDHPGHPGRSVGAFDIWGQGTMVTVSS
VL: QSALTQPASVSGSPGQSITISCTGTSNDVGSYNLVSWYQQYPGKAPKLLIFEVTKRSSGISNRFSGSKSGNTASLTISGLQGEDEADYYCCSYAGASTFVFGGGTKLTVL
binding result: binds
